{"source": "patent US20250215101A1", "about": "“DR5 Agonist and PLK1 Inhibitor or CDK Inhibitor Combination Therapy” (Inhibrx Biosciences, Inc., priority 2022, published 2025)", "type_in_all_cases": "cell-based", "key": {"SNU-C2A": {"system": "SNU-C2A", "experiment": "Cytotoxicity assay, colorectal cancer cell line panel, onvansertib +/- 1 nM INBRX-109", "settings": "1 nM INBRX-109 only", "protocol": "(§1) Monolayer cultures of each cell line were harvested for compound screening as detailed below.\n(§2) Also on day 2, test and control articles were added.\n(§3) On day 4, viability measurements were taken. […] Data was graphed in GraphPad Prism 9.\n(§4) The results for a panel of colorectal cancer cell lines are shown in Table 3 and FIGS. 4-6, and the results for a panel of pancreatic cell lines are shown in Table 4 and FIGS. 7 and 8."}, "LS 1034": {"system": "LS 1034", "experiment": "Cytotoxicity assay, colorectal cancer cell line panel, onvansertib +/- 1 nM INBRX-109", "settings": "LS 1034; 1 nM INBRX-109 only", "protocol": "as §1, §2, §3, §4"}, "SW1463": {"system": "SW1463", "experiment": "Cell viability (CellTiter-Glo) cytotoxicity assay, INBRX-109 x onvansertib matrix, 48 h", "settings": "SW1463", "protocol": "as §1\n(§5) Onvansertib: A 10 mg stock of onvansertib was purchased from Selleck Chemicals and was resuspended to 10 mM in DMSO. This was then aliquoted and stored at −80° C. Aliquots were thawed immediately prior to dilution and use in the assay. A 500× master plate of serial dilutions (6-point 5-fold dilutions in 100% DMSO starting at 500 μM, plus a DMSO only control) was prepared and mixed gently with a pipette. To generate a 5× working dilution plate of onvansertib, a 1:100 dilution was performed from the 500× plate into complete media (EMEM).\nas §2, §3"}, "SW620": {"system": "SW620", "experiment": "Cell viability (CellTiter-Glo) cytotoxicity assay, INBRX-109 x onvansertib matrix, 48 h", "settings": "SW620; INBRX-109 only (Table 1)", "protocol": "as §1, §5, §2, §3"}, "LS411N": {"system": "LS411N", "experiment": "Cell viability (CellTiter-Glo) cytotoxicity assay, INBRX-109 x onvansertib matrix, 48 h", "protocol": "as §1, §5, §2, §3"}, "LS174T": {"system": "LS174T", "experiment": "Cell viability (CellTiter-Glo) cytotoxicity assay, INBRX-109 x onvansertib matrix, 48 h", "protocol": "as §1, §5, §2, §3"}, "SW837": {"system": "SW837", "experiment": "Cell viability (CellTiter-Glo) cytotoxicity assay, INBRX-109 x onvansertib matrix, 48 h", "settings": "SW837", "protocol": "as §1, §5, §2, §3"}, "HT-29": {"system": "HT-29", "experiment": "Cell viability (CellTiter-Glo) cytotoxicity assay, INBRX-109 x onvansertib matrix, 48 h", "settings": "HT-29", "protocol": "as §1, §5, §2, §3"}, "PL45": {"system": "PL45", "experiment": "Cytotoxicity assay, pancreatic cell line panel, onvansertib +/- 1 nM INBRX-109", "settings": "PL45; 1 nM INBRX-109 only", "protocol": "as §1, §2, §3, §4"}, "AsPC-1": {"system": "AsPC-1", "experiment": "Cytotoxicity assay, pancreatic cell line panel, onvansertib +/- 1 nM INBRX-109", "settings": "AsPC-1; 1 nM INBRX-109 only", "protocol": "as §1, §2, §3, §4"}, "Panc 10.05": {"system": "Panc 10.05", "experiment": "Cytotoxicity assay, pancreatic cell line panel, onvansertib +/- 1 nM INBRX-109", "settings": "Panc 10.05; 1 nM INBRX-109 only", "protocol": "as §1, §2, §3, §4"}, "CFPAC-1": {"system": "CFPAC-1", "experiment": "Cytotoxicity assay, pancreatic cell line panel, onvansertib +/- 1 nM INBRX-109", "settings": "CFPAC-1; 1 nM INBRX-109 only", "protocol": "as §1, §2, §3, §4"}, "BxPC-3": {"system": "BxPC-3", "experiment": "Cytotoxicity assay, pancreatic cell line panel, onvansertib +/- 1 nM INBRX-109", "settings": "BxPC-3; 1 nM INBRX-109 only", "protocol": "as §1, §2, §3, §4"}, "Capan-1": {"system": "Capan-1", "experiment": "Cytotoxicity assay, pancreatic cell line panel, onvansertib +/- 1 nM INBRX-109", "settings": "Capan-1; 1 nM INBRX-109 only", "protocol": "as §1, §2, §3, §4"}, "SW-1990": {"system": "SW-1990", "experiment": "Cytotoxicity assay, pancreatic cell line panel, onvansertib +/- 1 nM INBRX-109", "settings": "SW-1990; 1 nM INBRX-109 only", "protocol": "as §1, §2, §3, §4"}, "Panc 05.04": {"system": "Panc 05.04", "experiment": "Cytotoxicity assay, pancreatic cell line panel, onvansertib +/- 1 nM INBRX-109", "settings": "Panc 05.04; 1 nM INBRX-109 only", "protocol": "as §1, §2, §3, §4"}, "Capan-2": {"system": "Capan-2", "experiment": "Cytotoxicity assay, pancreatic cell line panel, onvansertib +/- 1 nM INBRX-109", "settings": "Capan-2; 1 nM INBRX-109 only", "protocol": "as §1, §2, §3, §4"}, "MIA PaCa-2": {"system": "MIA PaCa-2", "experiment": "Cytotoxicity assay, pancreatic cell line panel, onvansertib +/- 1 nM INBRX-109", "settings": "MIA PaCa-2; 1 nM INBRX-109 only", "protocol": "as §1, §2, §3, §4"}, "PANC-1": {"system": "PANC-1", "experiment": "Cytotoxicity assay, pancreatic cell line panel, onvansertib +/- 1 nM INBRX-109", "settings": "PANC-1; 1 nM INBRX-109 only", "protocol": "as §1, §2, §3, §4"}, "HPAF-II": {"system": "HPAF-II", "experiment": "Cytotoxicity assay, pancreatic cell line panel, onvansertib +/- 1 nM INBRX-109", "settings": "1 nM INBRX-109 only", "protocol": "as §1, §2, §3, §4"}, "PSN-1": {"system": "PSN-1", "experiment": "Cytotoxicity assay, pancreatic cell line panel, onvansertib +/- 1 nM INBRX-109", "settings": "PSN-1; 1 nM INBRX-109 only", "protocol": "as §1, §2, §3, §4"}, "KP4": {"system": "KP4", "experiment": "Cytotoxicity assay, pancreatic cell line panel, onvansertib +/- 1 nM INBRX-109", "settings": "KP4; 1 nM INBRX-109 only", "protocol": "as §1, §2, §3, §4"}, "SU.86.86": {"system": "SU.86.86", "experiment": "Cytotoxicity assay, pancreatic cell line panel, onvansertib +/- 1 nM INBRX-109", "settings": "SU.86.86; 1 nM INBRX-109 only", "protocol": "as §1, §2, §3, §4"}, "HuP-T4": {"system": "HuP-T4", "experiment": "Cytotoxicity assay, pancreatic cell line panel, onvansertib +/- 1 nM INBRX-109", "settings": "HuP-T4; 1 nM INBRX-109 only", "protocol": "as §1, §2, §3, §4"}, "Panc 03.27": {"system": "Panc 03.27", "experiment": "Cytotoxicity assay, pancreatic cell line panel, onvansertib +/- 1 nM INBRX-109", "settings": "Panc 03.27; 1 nM INBRX-109 only", "protocol": "as §1, §2, §3, §4"}}, "data": [{"molecule": "INBRX-109: DR5-binding polypeptide consisting of SEQ ID NO: 7 (two VHH domains and an Fc region); DR5 agonist (protein, INBRX-109, DR5 agonist) EVQLLESGGGEVQPGGSLRLSCAASGLTFPNYGMGWFRQAPGKEREFVSAIYWSGGTVYYAESVKGRFTISRDNAKNTLYLQMSSLRAEDTAVYYCAVTIRGAATQTWKYDYWGQGTLVTVKPGGSGGSEVQLLESGGGEVQPGGSLRLSCAASGLTFPNYGMGWFRQAPGKEREFVSAIYWSGGTVYYAESVKGRFTISRDNAKNTLYLQMSSLRAEDTAVYYCAVTIRGAATQTWKYDYWGQGTLVTVKPGGGGDKTHTCPPCPAPGGPSVFLFPPKPKDTLMISRTPEVTCVVVDVSHEDPEVKFNWYVDGVEVHNAKTKPREEQYNSTYRVVSVLTVLHQDWLNGKEYKCKVSNKALPAPIEKTISKAKGQPREPQVYTLPPSRDELTKNQVSLTCLVKGFYPSDIAVEWESNGQPENNYKTTPPVLDSDGSFFLYSKLTVDKSRWQQGNVFSCSVMHEALHNHYTQKSLSLSPGK", "values": [{"measurement": "Max Cytotox at 1 nM", "setting": "SNU-C2A", "value": 41.4, "unit": "%"}, {"measurement": "Max Cytotox at 1 nM", "setting": "LS 1034", "value": 56.9, "unit": "%"}, {"measurement": "EC50", "setting": "SW1463; INBRX-109 + 200 nM onvansertib", "value": 0.00495, "unit": "nM"}, {"measurement": "Max Cytotox", "setting": "SW1463; INBRX-109 + 200 nM onvansertib", "value": 73.74, "unit": "%"}, {"measurement": "EC50", "setting": "SW1463; INBRX-109 only (Table 1)", "value": 0.066, "unit": "nM"}, {"measurement": "Max Cytotox", "setting": "SW1463; INBRX-109 only (Table 1)", "value": 38.14, "unit": "%"}, {"measurement": "EC50", "setting": "SW620", "value": 0.00478, "unit": "nM"}, {"measurement": "Max Cytotox", "setting": "SW620", "value": 20.25, "unit": "%"}, {"measurement": "Max Cytotox", "setting": "LS411N; INBRX-109 + 200 nM onvansertib", "value": 88.9, "unit": "%"}, {"measurement": "EC50", "setting": "LS411N; INBRX-109 only (Table 1)", "value": "Unstable"}, {"measurement": "EC50", "setting": "LS174T; INBRX-109 + 200 nM onvansertib", "value": 0.0907, "unit": "nM"}, {"measurement": "Max Cytotox", "setting": "LS174T; INBRX-109 + 200 nM onvansertib", "value": 79.32, "unit": "%"}, {"measurement": "EC50", "setting": "LS174T; INBRX-109 only (Table 1)", "value": 0.0106, "unit": "nM"}, {"measurement": "Max Cytotox", "setting": "LS174T; INBRX-109 only (Table 1)", "value": 59.68, "unit": "%"}, {"measurement": "Max Cytotox", "setting": "SW837; INBRX-109 + 200 nM onvansertib", "value": 80.64, "unit": "%"}, {"measurement": "EC50", "setting": "SW837; INBRX-109 only (Table 1)", "value": 0.00123, "unit": "nM"}, {"measurement": "Max Cytotox", "setting": "SW837; INBRX-109 only (Table 1)", "value": 6.43, "unit": "%"}, {"measurement": "Max Cytotox", "setting": "HT-29; INBRX-109 + 200 nM onvansertib", "value": 94.94, "unit": "%"}, {"measurement": "EC50", "setting": "HT-29; INBRX-109 only (Table 1)", "value": 0.0116, "unit": "nM"}, {"measurement": "Max Cytotox", "setting": "HT-29; INBRX-109 only (Table 1)", "value": 71.42, "unit": "%"}, {"measurement": "Max Cytotox at 1 nM", "setting": "PL45", "value": 14.1, "unit": "%"}, {"measurement": "Max Cytotox at 1 nM", "setting": "AsPC-1", "value": 14.5, "unit": "%"}, {"measurement": "Max Cytotox at 1 nM", "setting": "Panc 10.05", "value": 23.8, "unit": "%"}, {"measurement": "Max Cytotox at 1 nM", "setting": "CFPAC-1", "value": 23.8, "unit": "%"}, {"measurement": "Max Cytotox at 1 nM", "setting": "BxPC-3", "value": 51.3, "unit": "%"}, {"measurement": "Max Cytotox at 1 nM", "setting": "Capan-1", "value": 86.9, "unit": "%"}, {"measurement": "Max Cytotox at 1 nM", "setting": "SW-1990", "value": 54.7, "unit": "%"}, {"measurement": "Max Cytotox at 1 nM", "setting": "Panc 05.04", "value": 97.0, "unit": "%"}, {"measurement": "Max Cytotox at 1 nM", "setting": "Capan-2", "value": 11.1, "unit": "%"}, {"measurement": "Max Cytotox at 1 nM", "setting": "MIA PaCa-2", "value": 77.9, "unit": "%"}, {"measurement": "Max Cytotox at 1 nM", "setting": "PANC-1", "value": 32.6, "unit": "%"}, {"measurement": "Max Cytotox at 1 nM", "setting": "HPAF-II", "value": 22.8, "unit": "%"}, {"measurement": "Max Cytotox at 1 nM", "setting": "PSN-1", "value": 91.9, "unit": "%"}, {"measurement": "Max Cytotox at 1 nM", "setting": "KP4", "value": 7.8, "unit": "%"}, {"measurement": "Max Cytotox at 1 nM", "setting": "SU.86.86", "value": 92.5, "unit": "%"}, {"measurement": "Max Cytotox at 1 nM", "setting": "HuP-T4", "value": 80.7, "unit": "%"}, {"measurement": "Max Cytotox at 1 nM", "setting": "Panc 03.27", "value": 53.2, "unit": "%"}]}]}
